Laboratory results published in US20090130195A1 (UNIVERSITY OF SOUTH FLORIDA, published 2009).

Molecular target: T1, protein kinase C-iota (PKC-ι) (human, UniProt P41743 2-596)
T1 construct: Endogenous protein immunoprecipitated or blotted from cell lysates; also called PKC-i
T1 sequence (looked up): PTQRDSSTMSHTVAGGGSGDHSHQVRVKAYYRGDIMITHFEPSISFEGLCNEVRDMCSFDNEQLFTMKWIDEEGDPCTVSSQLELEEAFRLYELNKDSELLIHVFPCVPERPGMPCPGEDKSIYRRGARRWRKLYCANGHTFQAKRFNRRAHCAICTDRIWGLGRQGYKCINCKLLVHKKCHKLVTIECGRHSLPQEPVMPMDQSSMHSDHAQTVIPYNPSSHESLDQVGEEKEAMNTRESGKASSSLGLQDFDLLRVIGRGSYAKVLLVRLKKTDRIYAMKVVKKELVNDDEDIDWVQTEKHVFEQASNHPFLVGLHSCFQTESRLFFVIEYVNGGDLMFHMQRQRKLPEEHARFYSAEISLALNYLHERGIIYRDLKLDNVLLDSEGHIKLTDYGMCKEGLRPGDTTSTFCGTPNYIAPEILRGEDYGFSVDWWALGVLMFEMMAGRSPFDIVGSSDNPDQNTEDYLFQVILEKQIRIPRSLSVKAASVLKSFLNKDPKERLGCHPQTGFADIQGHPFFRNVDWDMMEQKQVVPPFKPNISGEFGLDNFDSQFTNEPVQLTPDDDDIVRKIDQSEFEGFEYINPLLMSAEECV
Experiment: Immunoprecipitation of Bad (200 µg protein) from RWPE-1 and DU-145 cells treated with control siRNA or PKC-ι siRNA, then immunoblot
Method: PKC-ι is overexpressed in non-small cell lung cancer cells (NSCLC) and it has been reported to phosphorylate Bad at multiple sites for cell survival. To test whether PKC-ι can directly phosphorylate endogenous Bad, Bad protein (200 μg) was immunoprecipitated from control siRNA and PKC-ι siRNA treated (incubation time 24 h) RWPE-1 and DU-145 cells. Normal rabbit IgG agarose conjugate (5 μg) was used as a negative control.
A similar experiment was performed with DU-145 (FIG. 8A, third column). First, we investigated if PKC-ι associates with Bad. […] However, we observed an increase in phosphorylation of Bad ser-112, no significant changes in p-Bad (ser-136) and p-Bad (ser-155).

B1: Bad (other, UniProt Q92934 1-168, looked up)
chain: MFQIPEFEPSEQEDSSSAERGLGPSPAGDGPSGSGKHHRQAPGLLWDASHQQEQPTSSSHHGGAGAVEIRSRHSSYPAGTEDDEGMGEEPSPFRGRSRSAPPNLWAAQRYGRELRRMSDEFVDSFKKGLPRPKSAGTATQMRQSSSWTRVFQSWWDRNLGRGSSAPSQ
notes: Endogenous protein from human prostate cell lines; Its phosphorylation (ser-112, ser-136, ser-155) varies with cell line and treatment; also called Bad protein
- binding result: no binding
